The values that follow come from US20020137087, “2'-fluoropyrimidine anti-calf intestinal phosphatase nucleic acid ligands” (published 2002).

Numbering of substitutions follows the chain as printed.

Data set [1] concerns the target T1, Calf intestinal alkaline phosphatase (CIP) (UniProt P19111 P19111:20-506). Kind of data set: streptavidin plate chemiluminescence assay, SHMCK+ buffer pH 7.35, 1 mM CaCl2, 1 mM MgCl2, 37 C. The following applies: tags: Boehringer Mannheim (Indianapolis, Ind.), 10 mg/ml; chain copies: 2. The method, then: The affinity of the initial random library and round 8 affinity enriched pool of Example 1 was performed by a plate-based assay using RNA-transcripts biotinylated on the 5′-terminus. Briefly, opaque white 96-well Lumino plates were coated with streptavidin (10 to 20 μg/well). Biotinylated RNA obtained either from the round 8 pool or the random library were added separately to individual wells of a 96-well microtiter plate (approximately 30 fMols RNA per well). After incubating for 1 hour at room temperature, wells were washed three times with […] of SHMCK+buffer. Varying concentrations of CIP, in SHMCK+buffer, were added to the wells and allowed to incubate for 1 hour at 37° C. Wells were washed four times with 200 μl SHMCK+buffer followed by the addition of a 100 μl solution consisting of 0.1 M diethanolamine pH 10, 10% volume/volume Sapphire enhancer solution (Tropix Inc., Bedford, Mass.), […] CSPD (Tropix, Inc.), 1 mM MgCl₂, and 0.02% sodium azide. After a 30 minute incubation, chemiluminescence was measured using a Berthold (Nashua, N.H.) LB 96P luminometer. Luminescence levels were integrated over one second and data were fit to a sigmoidal dose-response curve (variable slope), Y=Bottom+[(Top−Bottom)/1+10^{(Log EC50-X)(Hillslope)}] using GraphPad Prism version 2.01 (GraphPad Software; San Diego, Calif.). […]

The target in data set [2] is T1, Calf intestinal alkaline phosphatase …. Kind of data set: streptavidin plate chemiluminescence assay, SHMCK+ buffer, 37 C. As to conditions: tags: Boehringer Mannheim (Indianapolis, Ind.), 10 mg/ml; chain copies: 2. The procedure: The affinity of the initial random library and round 8 affinity enriched pool of Example 1 was performed by a plate-based assay using RNA-transcripts biotinylated on the 5′-terminus. Briefly, opaque white 96-well Lumino plates were coated with streptavidin (10 to 20 μg/well). Biotinylated RNA obtained either from the round 8 pool or the random library were added separately to individual wells of a 96-well microtiter plate (approximately 30 fMols RNA per well). After incubating for 1 hour at room temperature, wells were washed three times with […] of SHMCK+buffer. Varying concentrations of CIP, in SHMCK+buffer, were added to the wells and allowed to incubate for 1 hour at 37° C. Wells were washed four times with 200 μl SHMCK+buffer followed by the addition of a 100 μl solution consisting of 0.1 M diethanolamine pH 10, 10% volume/volume Sapphire enhancer solution (Tropix Inc., Bedford, Mass.), […] CSPD (Tropix, Inc.), 1 mM MgCl₂, and 0.02% sodium azide. After a 30 minute incubation, chemiluminescence was measured using a Berthold (Nashua, N.H.) LB 96P luminometer. Luminescence levels were integrated over one second and data were fit to a sigmoidal dose-response curve (variable slope), Y=Bottom+[(Top−Bottom)/1+10^{(Log EC50-X)(Hillslope)}] using GraphPad Prism version 2.01 (GraphPad Software; San Diego, Calif.). Each replicate was considered individually and convergence was obtained when two consecutive iterations varied the sum of squares (relative distance of the points from the curve, 1/Y²) by less than 0.01%.

T1 sequence (P19111 20-506, one chain of several): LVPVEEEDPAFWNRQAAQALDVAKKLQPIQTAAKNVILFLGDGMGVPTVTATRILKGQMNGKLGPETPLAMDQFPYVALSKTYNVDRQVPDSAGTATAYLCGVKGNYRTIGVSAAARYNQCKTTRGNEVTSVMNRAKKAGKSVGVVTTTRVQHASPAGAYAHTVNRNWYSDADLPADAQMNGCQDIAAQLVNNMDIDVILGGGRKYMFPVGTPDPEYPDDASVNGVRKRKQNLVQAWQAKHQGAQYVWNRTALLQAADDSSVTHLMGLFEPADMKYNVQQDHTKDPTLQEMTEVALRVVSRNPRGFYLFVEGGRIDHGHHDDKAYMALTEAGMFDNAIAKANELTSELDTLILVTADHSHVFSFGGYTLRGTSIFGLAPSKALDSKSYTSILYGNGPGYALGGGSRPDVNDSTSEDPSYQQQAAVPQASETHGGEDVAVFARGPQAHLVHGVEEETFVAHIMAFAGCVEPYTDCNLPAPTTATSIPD

B1: DD-172-2-4 (group B) (ssRNA)
RNA: GGGAGACAAGAAUAAACGCUCAACGCCAGGCCCUUAUCAAGCGCGGAACGCACGACCCGUCUUUCGACAGGAGGCUCACAACAGGC
modifications: all pyrimidines 2'-F
The Kd is the equilibrium constant for the complex coming apart. With B1, the Kd in data set [1] was 0.13 nM.

B2: DD-172-2-20 (group B) (ssRNA)
RNA: B1 RNA with C53U
modifications: all pyrimidines 2'-F
Turning to B2, the affinity in data set [2], expressed as Kd, was 0.26 nM. In other words, the sub-nanomolar range.

B3: DD-172-2-9 (group A) (ssRNA)
RNA: GGGAGACAAGAAUAAACGCUCAACACAAAACAAAAUAACCUUAGCCUCGGUGCUCUACGCAAUUCGACAGGAGGCUCACAACAGGC
modifications: all pyrimidines 2'-F
In the case of B3, the Kd in data set [2] worked out at 7.8 nM. This Kd lies about 30-fold higher than the previous one.

B4: DD-172-2-17 (group A) (ssRNA)
RNA: GGGAGACAAGAAUAACGCUCAAACACAAAACAAAAUAACUUGGCCUCGGUGCUCUACGCAAUUCGACAGGAGGCUCACAACAGGC
modifications: all pyrimidines 2'-F
In the case of B4, the dissociation constant Kd in data set [2] was determined as 7.2 nM.
